Laboratory results taken from patent publication US20250051473A1 (IGM BIOSCIENCES, published 2025).

What follows are binders tested against T1, recombinant cynomolgus monkey CD38 extracellular domain protein (ACROBiosystems) (cynomolgus monkey, UniProt Q5VAN0 44-301) (assay: ELISA screen of hybridoma supernatants on recombinant CD38).
T1 construct: Bought extracellular domain protein; also called cyno CD38; recombinant cyno CD38

binding result	Binder
binds	Clone E (antibody, V domains shown, Murine hybridoma antibody tested as supernatant; also called anti-CD38 murine hybridoma clone E) VH: QVQLQQSGAELVRPGTSVKMSCKAAGYTFTNHWIEWVKQRPGHGLEWIGDIFPGGGYTDYNEKFKGKATLTADTSSSTAYMQLSSLTSEDSAIYYCARGRDLAMDYWGQGTSVTVSS VL: DIQMNQSPSSLSASLGDTITITCHASQNINVWLGWYQQKPGNIPKLLIYKASNLHTGVPSRFSGSGSGTGFTLTISSLQPEDIATYYCQQGQSYPYTFGGGTKLEIK
binds	Clone B (antibody, V domains shown, Murine hybridoma antibody tested as supernatant; also called anti-CD38 murine hybridoma clone B) VH: QAYLQQSGAEVVRSGASVKMSCKAAGYTFTSYNMHWVKQTPGQGLEWIGYIYPGNGGTNYNQKFKGKATLTADTSSTTAYMQISSLTSEDSAVYFCARGASMITTGAWFAYWGQGTLVTVSA VL: NIVLTQSPASLAVSLGQRATISCRASESLDTYGNSFMYWYQQKPGQPPKLLIYLASSLESGVPARFSGSGSRTDFTLTIDPVEADDAATYYCHQNHEDPWTFGGGTKLEIK

What follows are binders tested against T2, recombinant human CD38 extracellular domain protein (ACROBiosystems, Cat #CD8-H5224) (human, UniProt P28907 43-300) (assay: BLI (Octet 384), IgG on anti-human IgG Fc biosensors, soluble human CD38 as analyte, 1:1 global fit).
T2 construct: Bought protein; also called recombinant human CD38 protein
Procedure: Samples and buffer were applied in 384-well plates. After an initial baseline calibration for 60 seconds, sensors were loaded with 20 nM of IgG antibodies. The biosensors were dipped into buffer to reach a baseline value and incubated for 600 seconds with 2-fold serial diluted human CD38 protein starting at 100 nM for association, followed by 900 seconds in buffer for dissociation.

Binder	Kd [nM]	koff [s⁻¹]	kon [M⁻¹ s⁻¹]
IgG E-1 (antibody, V domains shown, also called chimeric IgG of Clone E) VH: QVQLQQSGAELVRPGTSVKMSCKAAGYTFTNHWIEWVKQRPGHGLEWIGDIFPGGGYTDYNEKFKGKATLTADTSSSTAYMQLSSLTSEDSAIYYCARGRDLAMDYWGQGTSVTVSS VL: DIQMNQSPSSLSASLGDTITITCHASQNINVWLGWYQQKPGNIPKLLIYKASNLHTGVPSRFSGSGSGTGFTLTISSLQPEDIATYYCQQGQSYPYTFGGGTKLEIK	1.99	0.00117	587000
IgG B-2 (antibody, V domains shown, also called humanized Clone B IgG (BVH1 / BVL1)) VH: QVQLVQSGAEVKKPGSSVKVSCKASGYTFTSYNMHWVRQAPGQGLEWMGYIYPGNGGTNYNQKFKGRVTITADESTSTAYMELSSLRSEDTAVYYCARGASMITTGAWFAYWGQGTLVTVSS VL: DIQMTQSPSSVSASVGDRVTITCRASESLDTYGNSFMYWYQQKPGKAPKLLIYLASSLESGVPSRFSGSGSGTDFTLTISSLQPEDFATYYCHQNHEDPWTFGQGTKVEIK	0.8	0.000225	281000
IgG B-1 (antibody, V domains shown, also called chimeric IgG of Clone B) VH: QAYLQQSGAEVVRSGASVKMSCKAAGYTFTSYNMHWVKQTPGQGLEWIGYIYPGNGGTNYNQKFKGKATLTADTSSTTAYMQISSLTSEDSAVYFCARGASMITTGAWFAYWGQGTLVTVSA VL: NIVLTQSPASLAVSLGQRATISCRASESLDTYGNSFMYWYQQKPGQPPKLLIYLASSLESGVPARFSGSGSRTDFTLTIDPVEADDAATYYCHQNHEDPWTFGGGTKLEIK	0.526	7.32e-05	139000

Second part, the binder after the results:

Kd [nM]	koff [s⁻¹]	kon [M⁻¹ s⁻¹]	Binder
28.3	0.0113	400000	IgG OKT10-2 (antibody, V domains shown, also called humanized OKT10 IgG (OKT10VH2 / OKT10VL2)) VH: EVQLLESGGGLVQPGGSLRLSCAASGFDFSRSWMNWVRQAPGKGLEWVSEINPDSSTINYATSLKDRFTISRDNSKNTLYLQMNSLRAEDTAVYYCARYGNWFPYWGQGTLVTVSS VL: DIQMTQSPSSLSASVGDRVTITCKASQNVDTNVAWYQQKPGKAPKALIYSASYRYSGVPSRFSGSGSGTDFTLTISSLQPEDFATYYCQQYDSYPLTFGQGTKVEIK
5.97	0.00206	344000	IgG OKT10-1 (antibody, V domains shown, also called parental OKT10 in IgG format) VH: EVKLQESGGGLVQPGGSLKLSCAASGFDFSRSWMNWVRQAPGKGLEWIGEINPDSSTINYTTSLKDKFIISRDNAKNTLYLQMTKVRSEDTALYYCARYGNWFPYWGQGTLVTVSA VL: DIVMTQSPKIMPTSVGDRVSVTCKASQNVDTNVAWYQQKPGQSPKALIYSASYRYSGVPDRFTGSGSGTDFTLTITNVQSEDLAEYFCQQYDSYPLTFGAGTKLDLK
7.62	0.00378	496000	IgG E-2 (antibody, V domains shown, also called humanized Clone E IgG (EVH1 / EVL1)) VH: QVQLVQSGAEVKKPGSSVKVSCKASGYTFTNHWIEWVRQAPGQGLEWMGDIFPGGGYTDYNEKFKGRVTITADESTSTAYMELSSLRSEDTAVYYCARGRDLAMDYWGQGTLVTVSS VL: DIQMTQSPSSLSASVGDRVTITCHASQNINVWLGWYQQKPGKAPKLLIYKASNLHTGVPSRFSGSGSGTDFTLTISSLQPEDFATYYCQQGQSYPYTFGQGTKVEIK
